Target: filamentous actin (F-actin) from rabbit skeletal muscle (rabbit, UniProt P68135 1-377)
Experiment: co-sedimentation

| Binder | stoichiometry N |
| --- | --- |
| gizzard vinculin (intact, 116 kD) (natural protein) MPVFHTRTIESILEPVAQQISHLVIMHEEGEVDGKAIPDLTAPVSAVQAAVSNLVRVGKETVQTTEDQILKRDMPPAFIKVENACTKLVRAAQMLQADPYSVPARDYLIDGSRGILSGTSDLLLTFDEAEVRKIIRVCKGILEYLTVAEVVETMEDLVTYTKNLGPGMTKMAKMIDERQQELTHQEHRVMLVNSMNTVKELLPVLISAMKIFVTTKNTKSQGIEEALKNRNFTVEKMSAEINEIIRVLQLTSWDEDAWASKDTEAMKRALALIDSKMNQAKGWLRDPNAPPGDAGEQAIRQILDEAGKAGELCAGKERREILGTCKTLGQMTDQLADLRARGQGATPMAMQKAQQVSQGLDLLTAKVENAARKLEAMTNSKQAIAKKIDAAQNWLADPNGGSEGEEHIRGIMSEARKVAELCEEPKERDDILRSLGEISALTAKLSDLRRHGKGDSPEARALAKQIATSLQNLQSKTNRAVANTRPVKAAVHLEGKIEQAQRWIDNPTVDDRGVGQAAIRGLVAEGRRLANVMMGPYRQDLLAKCDRVDQLAAQLADLAARGEGESPQARAIAAQLQDSLKDLKARMQEAMTQEVSDVFSDTTTPIKLLAVAATAPSDTPNREEVFEERAANFENHAARLGATAEKAAAVGTANKTTVEGIQATVKSARELTPQVVSAARILLRNPGNQAAYEHFETMKNQWIDNVEKMTGLVDEAIDTKSLLDASEEAIKKDLDKCKVAMANMQPQMLVAGATSIARRANRILLVAKREVENSEDPKFREAVKAASDELSKTISPMVMDAKAVAGNISDPGLQKSFLDSGYRILGAVAKVREAFQPQEPDFPPPPPDLEHLHLTDELAPPKPPLPEGEVPPPRPPPPEEKDEEFPEQKAGEAINQPMMMAARQLHDEARKWSSKGNDIIAAAKRMALLMAEMSRLVRGGSGNKRALIQCAKDIAKASDEVTRLAKEVAKQCTDKRIRTNLLQVCERIPTISTQLKILSTVKATMLGRTNISDEESEQATEMLVHNAQNLMQSVKETVREAEAASIKIRTDAGFTLRWVRKTPWYQ | 0.5 mol vinculin per mol actin |
| MBPVinc8 (maltose binding protein fused to vinculin tail residues 809-1063) (domain or fragment) SDPGLQKSFLDSGYRILGAVAKVREAFQPQEPDFPPPPPDLEHLHLTDELAPPKPPLPEGEVPPPRPPPPEEKDEEFPEQKAGEAINQPMMMAARQLHDEARKWSSKGNDIIAAAKRMALLMAEMSRLVRGGSGNKRALIQCAKDIAKASDEVTRLAKEVAKQCTDKRIRTNLLQVCERIPTISTQLKILSTVKATMLGRTNISDEESEQATEMLVHNAQNLMQSVKETVREAEAASIKIRTDAGFTLRWVRKTP | 1.18 mol MBPVinc8 per mol actin |
